{
  "source": "patent US20210269790A1",
  "target": "FKBP12-Gag^HIV fusion protein (FKBP12 domain added to the N-terminal of Gag of HIV) (human immunodeficiency virus (HIV))",
  "test": "cell-based or functional assay",
  "settings": "scale: times",
  "data": [
    {"substance": "luciferase protein fused with an FRB domain (FRB-Luc) (from UniProt P42345 2021-2113)", "values": [
      {"measurement": "luciferase activity in HEK293T cells 16 hours after introduction of VLPs", "value": 12}
    ]}
  ]
}
